{"source": "patent US20020061546", "key": {"[1]": {"system": "GFP N-terminal phosphorylation mutant 1MSRRDSCF", "details": "scale: relative to the endogenous site HKFSV of Aequorea GFP"}, "[2]": {"system": "GFP phosphorylation mutant 214KRDSM"}, "[3]": {"system": "GFP N-terminal phosphorylation mutant 1MRRESLLF", "details": "scale: relative to the endogenous site HKFSV of Aequorea GFP"}, "[4]": {"system": "GFP N-terminal phosphorylation mutant 1MRRDSCLF", "details": "scale: relative to the endogenous site HKFSV of Aequorea GFP"}, "[5]": {"system": "GFP N-terminal phosphorylation mutant 1MRKGSLLF", "details": "scale: relative to the endogenous site HKFSV of Aequorea GFP"}, "[6]": {"system": "GFP phosphorylation mutant 25RRFSV", "details": "scale: relative to the endogenous site HKFSV of Aequorea GFP"}, "[7]": {"system": "wild type Aequorea green fluorescent protein"}, "[8]": {"system": "GFP N-terminal phosphorylation mutant 1MRKGSCLF", "details": "scale: relative to the endogenous site HKFSV of Aequorea GFP"}, "[9]": {"system": "GFP phosphorylation mutant 68RRFSA", "details": "scale: relative to the endogenous site HKFSV of Aequorea GFP"}, "[10]": {"system": "GFP phosphorylation mutant 155KRKSGI", "details": "scale: relative to the endogenous site HKFSV of Aequorea GFP"}, "[11]": {"system": "GFP phosphorylation mutant 172RRGSV", "details": "scale: relative to the endogenous site HKFSV of Aequorea GFP"}, "[12]": {"system": "GFP N-terminal phosphorylation mutant 1MSKRRDSL", "details": "scale: relative to the endogenous site HKFSV of Aequorea GFP"}, "[13]": {"details": "scale: relative to the endogenous site HKFSV of Aequorea GFP"}}}
{"substance": "protein kinase A catalytic subunit", "values": [{"measurement": "Relative rates of phosphorylation", "setting": "[1]", "result": 2.1}, {"measurement": "kinetics of phosphorylation using gamma-32P-labeled ATP", "setting": "[2]", "result": "the site is poorly phosphorylated by protein kinase A"}, {"measurement": "Relative rates of phosphorylation", "setting": "[2]; [13]", "result": 1.88}, {"measurement": "Relative rates of phosphorylation", "setting": "[3]", "result": 3}, {"measurement": "Relative rates of phosphorylation", "setting": "[4]", "result": 3.7}, {"measurement": "Relative rates of phosphorylation", "setting": "[5]", "result": 1.6}, {"measurement": "Relative rates of phosphorylation", "setting": "[6]", "result": 1.75}, {"measurement": "phosphorylation in vitro", "setting": "[7]", "result": "can be phosphorylated by protein kinase A in vitro with relatively slow kinetics"}, {"measurement": "Relative rates of phosphorylation", "setting": "[7]; [13]", "result": 1}, {"measurement": "Relative rates of phosphorylation", "setting": "[8]", "result": 5.1}, {"measurement": "Relative rates of phosphorylation", "setting": "[9]", "result": 0.6}, {"measurement": "Relative rates of phosphorylation", "setting": "[10]", "result": 2.5}, {"measurement": "Relative rates of phosphorylation", "setting": "[11]", "result": 1.57}, {"measurement": "Relative rates of phosphorylation", "setting": "[12]", "result": 5.5}]}
